doi:10.1101/2023.08.25.554918 (bioRxiv, 2023)

Key:
Test in all cases: SEC
[1] = target: Chimera 1 (Pfu1-Pfu2-Ton3) (Pyrococcus furiosus | Thermococcus onnurineus)
[2] = target: Chimera 2 (Pfu1-Ton2-Pfu3) (Pyrococcus furiosus | Thermococcus onnurineus)
[3] = target: Chimera 3 (Ton1-Ton2-Pfu3) (Thermococcus onnurineus | Pyrococcus furiosus)
[4] = target: Chimera 4 (Ton1-Pfu2-Ton3) (Thermococcus onnurineus | Pyrococcus furiosus)
[5] = target: Chimera 5 (Pfu1-Ton2-Ton3) (Pyrococcus furiosus | Thermococcus onnurineus)
[6] = target: Chimera 6 (Ton1-Pfu2-Pfu3) (Thermococcus onnurineus | Pyrococcus furiosus)
[7] = target: Domain 1 of PfuAmyGT (Pfu1) (Pyrococcus furiosus)
SEC = target: the molecule itself

Chimera 1 (Pfu1-Pfu2-Ton3) (enzyme)
stoichiometry N [1]: 2

Chimera 2 (Pfu1-Ton2-Pfu3) (enzyme)
stoichiometry N [2]: 2

Chimera 3 (Ton1-Ton2-Pfu3) (enzyme)
stoichiometry N [3]: 2

Chimera 4 (Ton1-Pfu2-Ton3) (enzyme)
stoichiometry N [4]: 2

Chimera 5 (Pfu1-Ton2-Ton3) (enzyme)
stoichiometry N [5]: 2

Chimera 6 (Ton1-Pfu2-Pfu3) (enzyme)
stoichiometry N [6]: 2

Domain 1 of PfuAmyGT (Pfu1) (domain or fragment)
stoichiometry N [7]: 4

B1: PfuAmyGT (Pfu1-Pfu2-Pfu3), GH57 4-α-glucanotransferase from Pyrococcus furiosus (enzyme)
chain: MGDKINFIFGIHNHQPLGNFGWVFEEAYEKCYWPFLETLEEYPNMKVAIHTSGPLIEWLQDNRPEYIDLLRSLVKRGQVEIVVAGFYEPVLASIPKEDRIEQIRLMKEWAKSIGFDARGVWLTERVWQPELVKTLKESGIDYVIVDDYHFMSAGLSKEELYWPYYTEDGGEVIAVFPIDEKLRYLIPFRPVDKVLEYLHSLIDGDESKVAVFHDDGEKFGIWPGTYEWVYEKGWLREFFDRISSDEKINLMLYTEYLEKYKPRGLVYLPIASYFEMSEWSLPAKQARLFVEFVNELKVKGIFEKYRVFVRGGIWKNFFYKYPESNYMHKRMLMVSKLVRNNPEARKYLLRAQCNDAYWHGLFGGVYLPHLRRAIWNNLIKANSYVSLGKVIRDIDYDGFEEVLIENDNFYAVFKPSYGGSLVEFSSKNRLVNYVDVLARRWEHYHGYVESQFDGVASIHELEKKIPDEIRKEVAYDKYRRFMLQDHVVPLGTTLEDFMFSRQQEIGEFPRVPYSYELLDGGIRLKREHLGIEVEKTVKLVNDGFEVEYIVNNKTGNPVLFAVELNVAVQSIMESPGVLRGKEIVVDDKYAVGKFALKFEDEMEVWKYPVKTLSQSESGWDLIQQGVSYIVPIRLEDKIRFKLKFEEASG
stoichiometry N (SEC): 2
